Measurements as given in US20140056893A1 (Eli Lilly, published 2014).

Target: human glucagon-like peptide 1 receptor (hGLP-1R) (human, UniProt P43220 24-463)
Assay: cell-based or functional assay

B1: Homodimeric protein wherein the amino acid sequence of each polypeptide of said protein is SEQ ID NO: 1 (Fc fusion)
chain: HGEGTFTSDVSSYLEEQAAKEFIAWLVAGGGGGGGSGGGGSGGGGSESKYGPPCPPCPAPEAAGGPSVFLFPPKPKDTLMISRTPEVTCVVVDVSCEDPEVQFNWYVDGVEVHNAKTKPREEQFNSTYRVVSVLTVLHQDWLNGKEYKCKVSNKGLPSSIEKTISKAKGQPREPQVYTLPPSCEEMTKNQVSLTCLVKGFYPSDIAVEWESNGQPENNYKTTPPVLDSDGSFFLYSRLTVDKSRWQEGNVFSCSVMHEALHNHYTQKSLSLSLGGGGGSGGGGSGGGGSAHPIPDSSPLLQFGGQVRQRYLYTDDAQQTECHLEIREDGTVGCAADQSPESLLQLKALKPGVIQILGVKTSRFLCQRPDGALYGSLHFDPEACSFREDLKEDGYNVYQSEAHGLPLHLPGDKSPHRKPAPRGPARFLPLPGLPPALPEPPGILAPQPPDVGSSDPLRLVEPSCLRSPSFE
  In vitro potency (EC50), hGLP-1R-stimulated cAMP functional assay (Alpha Screen) in hGLP-1R-HEK293 cells: 0.067 nM
